Source: article PMC10901373, “An unusual dual sugar-binding lectin domain controls the substrate specificity of a mucin-type O-glycosyltransferase” (Science Advances, 2024)
Each block holds one binder with its values, some of them ahead of it. No end group written: not given here. *: point of attachment. αGalNAc = CC(=O)N[C@@H]1[C@@H](O)[C@@H](O)[C@@H](CO)O[C@@H]1*

Tests used:
[1] = molecular target: T1, mouse GalNAc-T1 (pKN55-His6-TEV-mGalNAc-T1-∆56) (mouse, UniProt O08912 57-559); experiment: crystal structure; mouse GalNAc-T1 (5 mg/ml) combined with 4 mM Muc5AC-13, 5 mM UDP and 5 mM MnCl2; hanging drops, 20% PEG-3350, 0.1 M MES pH 6.5; 2.3 Å; details: both partners purified
T1 construct: mouse polypeptide N-acetylgalactosaminyltransferase 1 (GalNAc-T1), construct printed as mGalNAc-T1-∆56 (read as lacking the first 56 residues); 98% identical to human GalNAc-T1; The construct has a TEV site after the His6 tag; The start at residue 57 is read from the name ∆56; also called N-acetylgalactosaminyl-transferase 1; source: SD200 16/60 gel filtration before crystallization
T1 sequence (looked up): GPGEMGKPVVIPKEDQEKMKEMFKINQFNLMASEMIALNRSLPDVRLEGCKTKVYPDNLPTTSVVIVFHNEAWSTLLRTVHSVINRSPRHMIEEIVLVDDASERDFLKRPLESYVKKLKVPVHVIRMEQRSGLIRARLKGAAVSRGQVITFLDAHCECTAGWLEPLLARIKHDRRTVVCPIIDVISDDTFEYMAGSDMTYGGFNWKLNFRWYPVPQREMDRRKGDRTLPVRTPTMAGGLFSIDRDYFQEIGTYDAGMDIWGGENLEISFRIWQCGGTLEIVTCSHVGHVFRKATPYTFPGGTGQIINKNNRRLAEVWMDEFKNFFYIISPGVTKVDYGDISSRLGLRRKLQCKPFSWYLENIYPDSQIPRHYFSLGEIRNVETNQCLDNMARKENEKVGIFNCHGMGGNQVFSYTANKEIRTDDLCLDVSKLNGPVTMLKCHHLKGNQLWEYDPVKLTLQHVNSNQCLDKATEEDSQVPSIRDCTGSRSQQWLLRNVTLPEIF

[2] = molecular target: T2, human GalNAc-T1 D444A (α repeat variant) (human) (UniProt Q10472)
T2 sequence: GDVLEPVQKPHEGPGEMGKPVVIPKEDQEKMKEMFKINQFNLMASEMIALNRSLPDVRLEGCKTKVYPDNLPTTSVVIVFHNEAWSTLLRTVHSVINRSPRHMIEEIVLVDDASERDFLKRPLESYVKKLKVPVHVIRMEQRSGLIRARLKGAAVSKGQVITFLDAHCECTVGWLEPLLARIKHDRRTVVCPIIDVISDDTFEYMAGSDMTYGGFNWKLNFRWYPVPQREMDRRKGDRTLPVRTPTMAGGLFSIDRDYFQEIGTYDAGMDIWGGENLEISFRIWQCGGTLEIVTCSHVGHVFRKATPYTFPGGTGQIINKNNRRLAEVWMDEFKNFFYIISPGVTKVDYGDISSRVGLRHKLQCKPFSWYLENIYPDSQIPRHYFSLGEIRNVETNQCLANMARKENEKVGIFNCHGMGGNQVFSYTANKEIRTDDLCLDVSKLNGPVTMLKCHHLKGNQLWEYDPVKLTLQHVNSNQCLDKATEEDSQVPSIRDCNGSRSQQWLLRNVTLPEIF

[3] = molecular target: T3, human GalNAc-T1 D484A (β repeat variant) (human) (UniProt Q10472)
T3 sequence: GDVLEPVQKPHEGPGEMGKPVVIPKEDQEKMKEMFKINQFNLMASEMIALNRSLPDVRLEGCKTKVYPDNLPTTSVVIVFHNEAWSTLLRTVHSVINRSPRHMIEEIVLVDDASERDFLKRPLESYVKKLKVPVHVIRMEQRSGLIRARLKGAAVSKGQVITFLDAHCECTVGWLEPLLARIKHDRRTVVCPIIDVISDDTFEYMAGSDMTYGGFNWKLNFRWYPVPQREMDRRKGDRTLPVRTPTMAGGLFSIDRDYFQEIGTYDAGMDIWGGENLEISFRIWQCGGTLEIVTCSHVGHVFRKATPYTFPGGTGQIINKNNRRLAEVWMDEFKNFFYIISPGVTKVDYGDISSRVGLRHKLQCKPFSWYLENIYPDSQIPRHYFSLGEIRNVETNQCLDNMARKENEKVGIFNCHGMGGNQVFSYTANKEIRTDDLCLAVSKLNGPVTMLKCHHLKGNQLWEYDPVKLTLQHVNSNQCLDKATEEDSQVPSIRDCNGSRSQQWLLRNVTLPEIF

- binding result [1]: binds
B1: Muc5AC-13 glycopeptide (GTT3PSPVPTTSTT13^GalNAcSAP) (peptide)
peptide: GTTPSPVPTTSTT(αGalNAc)SAP
notes: Muc5AC mucin repeat peptide, 16 residues; numbers count on: the peptide; source: synthetic peptide (Anaspec)

- KM (UDP-Glo), fold increase compared to GalNAc-T1^WT [2]: 10 fold
- kcat/KM (UDP-Glo), fold reduction compared to GalNAc-T1^WT [2]: 16 fold
B2: Muc5AC-A3 glycopeptide (GAT3^GalNAc…13PAP) (peptide)
peptide: GAT(αGalNAc)PAPVPAGAGTPAP

- KM (UDP-Glo), fold increase compared to GalNAc-T1^WT [3]: 20 fold
- kcat/KM (UDP-Glo), fold decrease compared to GalNAc-T1^WT [3]: 29 fold
B3: Muc5AC-A13 glycopeptide (GAT3…13^GalNAcPAP) (peptide)
peptide: GATPAPVPAGAGT(αGalNAc)PAP
